{"source": "the DeepSol protein solubility set", "data": [{"assay": "soluble on expression in E. coli; label from the status in PepcDB or PDB records", "values": [{"sequence": "SSGSTVDSTTLCLFDVDGTLTAARQKATADMHEFLSKLKQRVKVGVVGGSDLDKIKEQLGDDVIDRVDYVFAENGLVAYRFGKLHSVQNIQAYLGEDILQEFINFCLNYLSKIKLPKKRGTFIEFRNGMLNVSPIGRSCSQQERIEFFELDKKEKIRETFVSVLKEEFAGKGLAFSIGGQISFDVFPEGWDKRYCLGIVEKDSYQHIHFFGDKTMPGGNDYEIFVDPRTIGHEVKSPEDTQRICRELFFS", "soluble on expression in E. coli": "soluble"}, {"sequence": "MINNSFWQGKRVFVTGHTGFKGGWLSLWLQTMGATVKGYSLTAPTVPSLFETARVADGMQSEIGDIRDQNKLLESIREFQPEIVFHMAAQPLVRLSYSEPVETYSTNVMGTVYLLEAIRHVGGVKAVVNITSDKCYDNKEWIWGYRENEAMGGYDPYSNSKGCAELVTSSYRNSFFNPANYGQHGTAVATVRAGNVIGGGDWALDRIVPDILRAFEQSQPVIIRNPHAIRPWQHVLEPLSGYLLLAQKLYTDGAEYAEGWNFGPNDADATPVKNIVEQMVKYWGEGASWQLDGNAHPHEAHYLKLDCSKAKMQLGWHPRWNLNTTLEYIVGWHKNWLSGTDMHEYSITEINNYMNTK", "soluble on expression in E. coli": "soluble"}, {"sequence": "MNYFPDEVIEHVFDFVTSHKDRNAISLVCKSWYKIERYSRQKVFIGNCYAINPERLLRRFPCLKSLTLKGKPHFADFNLVPHEWGGFVLPWIEALARSRVGLEELRLKRMVVTDESLELLSRSFVNFKSLVLVSCEGFTTDGLASIAANCRHLRDLDLQENEIDDHRGQWLSCFPDTCTTLVTLNFACLEGETNLVALERLVARSPNLKSLKLNRAVPLDALARLMACAPQIVDLGVGSYENDPDSESYLKLMAVIKKCTSLRSLSGFLEAAPHCLSAFHPICHNLTSLNLSYAAEIHGSHLIKLIQHCKKLQRLWILDSIGDKGLEVVASTCKELQELRVFPSDLLGGGNTAVTEEGLVAISAGCPKLHSILYFCQQMTNAALVTVAKNCPNFIRFRLCILEPNKPDHVTSQPLDEGFGAIVKACKSLRRLSLSGLLTDQVFLYIGMYANQLEMLSIAFAGDTDKGMLYVLNGCKKMKKLEIRDSPFGDTALLADVSKYETMRSLWMSSCEVTLSGCKRLAEKAPWLNVEIINENDNNRMEENGHEGRQKVDKLYLYRTVVGTRMDAPPFVWIL", "soluble on expression in E. coli": "not soluble"}, {"sequence": "MIVRAINYESLHIDDRFGSIEELKTKISQKYGIPINSQHIIFNGKFYVLGIFDSPLTVSSDTYTNPLGCFGCPDSLFNDLAGNGMTTDEIREYAFPHKDDPAKREGPDLSSVIDTRAIAKRITENRYEDAYKIPNDLSEKEKTIIMESSGEYIDLVLKQIKEILRSNTKY", "soluble on expression in E. coli": "not soluble"}, {"sequence": "AAVEDNHLLIKAVQNEDVDLVQQLLEGGANVNFQEEEGGWTPLHNAVQMSREDIVELLLRHGADPVLRKKNGATPFLLAAIAGSVKLLKLFLSKGADVNECDFYGFTAFMEAAVYGKVKALKFLYKRGANVNLRRKTKEDQERLRKGGATALMDAAEKGHVEVLKILLDEMGADVNACDNMGRNALIHALLSSDDSDVEAITHLLLDHGADVNVRGERGKTPLILAVEKKHLGLVQRLLEQEHIEINDTDSDGKTALLLAVELKLKKIAELLCKRGASTDCGDLV", "soluble on expression in E. coli": "soluble"}, {"sequence": "MVPITHQNLIEMMTYALVLSGNRVITSGATGTNSAAIKGAMRADPNLLTVILPQSLERQPQESRQQLEQVMHLVENPSNDNLSLAEASYLCNKEIVSRCQQLICFAFHDSRTLLQTCGDAEEQRKVVTLFYFDLEHHHHHH", "soluble on expression in E. coli": "not soluble"}, {"sequence": "MRHSLWLLLAAILSLPAQAGTECRDIHDRDLRRMCNALERGDSGDCGDIDSRDMRRYCGALLAPGQRYDCDDIRDGDTRRQCRAIVRGDRKRCDDIDSRDMRRQCRAVVSRAPWQCDGIDDRDMRRICRVILSR", "soluble on expression in E. coli": "soluble"}, {"sequence": "MSLKEENYRNQVTEDFEQKKQALPHGDLFTVFSNPDLSVYEQEALMFLYAYMPIGDVTDYSGDYYLENVRLSGQTRTEMPWGDLIPDELFRHFVLPIRVNNENLDDSRRVFYGELKDRVKHLSMKDAILEVNHWCHEKVVYRPSDARTSSPLASVKTAYGRCGEESTFTVAALRSVGIPARQVYTPRWAHTDDNHAWVEAWADGQWYFFGACEPEPVLNLGWFNAPASRGMLMHTKVFGRYTGPEEIMLETPNYTEINVIDNYAPTAKATVTVTDTEGHPVSGAKVEFKIYNYAEFYTVATKYTDAEGKAFLTAGKGDMLVWASRDGKFGYAKLSFGKEDALKLSLDKKVGESYTLPMDIVPPVEGANLPEVTPEQRAENDHRMTQEDSIRNAYVATMMTDEQAKEWVNGLYGNILQPETMKDKLAAFLVASRGNHQTLKDFLSAIRKEKKHISWEEMRGMWLLENISAKDLRDVTLDVLNDHLKNTSDGEKTDTDLVKRALLNPRIANEMLTPYKKILYDAISEAVLKSAPVDAAHDAKALIEWCRKEIKIDNELNSQQIPVSPMGVWKSRVADEKSRDIFFVAAARSIGIPAWIDEVTGKVQYVSDGLSPQDVNFETSQSTQSCTGMLKASYTPIRSLSDPKYYSHFTISKFKNGTFQLLNYDEGDVDMGGGATWSNLLKNGVKLDEGYYMMVTGTRLASGAVLSNTTFFTIEPDKTTTVDLVMRESKDQVQVIGNFNSEATYRPVGGTDLQSILQTCGRGYFVVAVLGVGQEPTNHALRDIAALRSEFEQWGRKMVFLFPSEEQYKKFNTHEFKDLPSTIVYGIDVDNSIQKQIVDAMKLNQSTLPVFIIADTFNRVVFVSQGYTIGLGEQLMKVVHGEGHHHHHH", "soluble on expression in E. coli": "soluble"}, {"sequence": "MQAKIAASNTGELDALQQLGFSLVEGEVDLALPVNNASDSGAVVAQETDIPALRQLASAAFAQSRFRAPWYAPDASSRFYAQWIENAVRGTFDHQCLILRAASGDIRGYVSLRELNATDARIGLLAGRGAGAELMQTALNWAYARGKTTLRVATQMGNTAALKRYIQSGANVESTAYWLYR", "soluble on expression in E. coli": "not soluble"}, {"sequence": "PDQCKPPQVTCRSATCAQVNWEVPLSNGTDVTEYRLEWGGVEGSMQICYCGPGLSYEIKGLSPATTYYCRVQALSVVGAGPFSEVVACVTPPS", "soluble on expression in E. coli": "soluble"}, {"sequence": "MSLKNIRHIYYVSENTGLLAKDSGKSLLCQFPGVEFQEELLPFIRTKDDAQRTINAIREKCGEEKPIIFSTIFDPEINKILQHEDVILLNICEPFLTQLEGMLGKNALRASGHSRNVDQQIMSNRVDAIHYTISHDDGTAIMDYEEADLIIVGVSRSGKTPISVFLATQMGIKTANYPLVEQDLTFCQLPEDIIKNKHKVVGLSISPDVLHTFREQRYKGSHYAQMSTCKRETLQSKRIFEKYDLPVVFSDARSIEETATQVAQELSKQWNPIFEGHHHHHH", "soluble on expression in E. coli": "soluble"}, {"sequence": "MGSDKIHHHHHHMDKLASEYKVLIVDDVPTNVMLVQAILKKEGYTLLTCDSGTKALRIANEKHPNLILLDIMMPEMDGYEVLQHLKSNPETTDIPVIIMSALSDMQSIVKGYQLGATEYVTKPFQREELVKRVAHRYELYSIKRIKAELENTIESRDTLYSVIAHDLRSPLGSLKMMNNAILMMVDKERVGDEVYEMIQMMNKTSEEIFLLLDNLLKWAKNRLNKQHVYKQQTDINSIIDSTAEMYVPMAAQKGVKIILENLDKELVGLVDIDMLKTIIRNLISNAMKFSFEGGTITLSSRSEGDFVTVSVKDTGKGIKKEDQDKLLKQDSHFTTYGTKNEKGSGLGLMLCKDFVELHGGKLWFESEGEGKGTTFLFSMKALNQEA", "soluble on expression in E. coli": "not soluble"}, {"sequence": "MLRRQMSFNGKSDMGILYLVPTPIGNLEDMTFRAIDTLKSVDAIAAEDTRQTKKLCHVYEIETPLVSYHEHNKESSGHKIIEWLKSGKNIALVSDAGLPTISDPGAEIVKDFTDIGGYVVPLPGANAALTALIASGIVPQPFFFYGFLNRQKKEKKKELEALKKRQETIIFYEAPHRLKETLSAMAEILGDREIAVTRELTKKYEEFIRGTISEVIGWANEDQIRGEFCLVVEGSNNEEVDEEEQWWETLTAKEHVEHYISKGATSKEAIKKAAVDRNVPKREVYDAYHIKQ", "soluble on expression in E. coli": "soluble"}, {"sequence": "MSLKEFDFIKRYLQTGTDNDVVLGIGDDAAIVRPREGFDLCFSADMLLKDRHFFADVKPEDLAWKVLAVNISDMAAMGAIPRWVLLSAALPELDEVWLKRFCGSFFGLAKKFGVTLIGGDTTKGDMAFNVTIIGELPKGRALRRDAAVAGDDIWVSGRIGMAAAALNCRLKRCVLPDEVFAECEQKLLHPEPRVGLGLALLPFARAAQDVSDGLAQDLGHILTASGKGAEIWADSLPSLSVLKDILPRAQWLSYTLAGGDDYELVFTAPESCRSRVFDAAERCGVPVTRIGKINGGCRLKVLDADGRELELHSLGFDHFGEGHHHHHH", "soluble on expression in E. coli": "soluble"}, {"sequence": "MGSDKIHHHHHHMTTSKRVAIIGAGPSGLAQLRAFQSAAAKGEEIPEIVCFEKQDNWGGLWNYTWRTGLDENGEPVHCSMYRYLWSNGPKEGLEFADYSFEEHFGKQIASYPPRAVLFDYIEGRVLKANVRDWIRFSTAVRWIDYNDETGLFKVTVHDHTNDRVYSEEFDHVICASGHFSTPNVPHYEGFETFNGRLVHAHDFRDAREFAGKDILVVGSSYSAEDIGSQCWKYGAKSITSCYRSAPMGFKWPDNWEEKPALVKVDKNTVFFSDGTSREVDAIILCTGYKHFFNFLPDDLRLKTANRLATADLYKGVVYVHNPKMFYLGMQDQWFTFNMFDAQAWWVRDAIMGKIDLSNVTKEQMLADVTERETREEASDDVKYAIRYQADYVKELVAETDYPSFDIDGACEAFFQWKKHKGEDIMAFRNNSYTSVITGTLAPVHHTPWKDALDDSMEAYLRN", "soluble on expression in E. coli": "not soluble"}, {"sequence": "MSLNSIQHIRKAEIHVHLEATIGPDLCRKFAKRNKVTLTDDIFGSQYAYAWDDFYDFIKKYDLVTSVIHTPEDYRELTYSYLKECAKNNVLYVEAMISSTHAKLKGMSYHSFLEGVAEGSKQAEDEFGIISKYIMNGIRHLGPESVQKTAEEVLEFPHKDLVGFGLAGDELHFPPKLFTKTFDMLKEANFPITVHAGEWDGPENIRHAINLLHPTRLGHGVRSIEDPDLVKEIIDKDIILETCPTSNIATKIYEDYKSHPVKTLFDQGVKVTVNSDDPPFFNATIQGEYKVMEDLGLNEKELTSLTHNAIKYSFCDEENKNELLAKLNEGHHHHHH", "soluble on expression in E. coli": "soluble"}, {"sequence": "MGSDKIHHHHHHVDIQQIRNATLVVNYANQVFLIDPFLGEKGSLPPFGETPNAVPNPLVDLPVDVSTLLDPDAIFVTHLHADHFDETAKEILPKQIPLYAQNQADAATIREAGFTNVSSFENGLALGDIRVYHTSGRHGVGEIGQRMGTVSGLVLTHPDEPTLYIAGDTIWCEEVETAIEQHAPDIIIVNSGAAQFLTGEPITMSQRDLLAVHQAAAEATIIVSHLESVNHCLLRRDMIADFLAAHHLSAHFLIPDDGETISF", "soluble on expression in E. coli": "not soluble"}, {"sequence": "MSTGSTKLRNVDAVIKKGKPFSILLLGTDTGALGRGKDFSARTDTMIVATINPKKESMTLTSIPRDTQVMIDGQSQKINAAYTIGGASGAVKSVEKLLDVPIDFYVLLNMGGLKQIINAMGGVTVTPKLTFKYGNANVKKGVKIKLNGAAALDYSRMRYDDPQGDYGRQKRQQQVIMAMVSQSNSLGSIANIEKITKKLAKNMRTDLTWNDMVALDTKYKNASHHAKSYTVQGTDATIDGLSYQVASSSERYKNSKRIRKALGLSNSNLTESVFSETASITTGSSSSSSSSSSTTTSSDTTTYGTSTTQDTTTQDQTTTQDQTTTNQYLEHHHHHH", "soluble on expression in E. coli": "soluble"}, {"sequence": "MSQKEQIKTYKGPAGGWGALKAVTRSWWGSENAVKNIRTMLKTNQNGGFDCPGCAWGESPDSGKVNFCENGAKAVNWEATNRLVDPEFFANHSVSSLSTQTDYWLEYQG", "soluble on expression in E. coli": "not soluble"}]}]}
